Laboratory results from article PMC2928777, “Neuropeptide delivery to the brain: a von Willebrand factor signal peptide to direct neuropeptide secretion” (BMC Neuroscience, 2010).
Each block holds one molecule with its values, some of them ahead of it.

Target: T1, human MC4R (Homo sapiens, UniProt P32245)
T1 construct: expressed in transfected cells; host or cells: HEK 293T cells, transient transfection with polyethylenimine, co-transfected with CRE-LacZ
Assay: LacZ reporter gene assay (MC4R_CRE-LacZ transfected 293T cells)
Assay type: cell-based
Details: for EC50: 10% of the volume added was supernatant of 293T cells transfected with the named construct, antagonism of MC4R (rightward shift), average of 4 trials, read-out: EC50 of NDP-MSH dose response curve in presence of supernatant
Procedure: Activation of MC4R in vitro results in an increase in cyclic adenosine monophosphate (cAMP)[27]. In our assay upregulation of cAMP increased LacZ expression through a cAMP responsive element.
Activation of the MC4R was determined using LacZ as a reporter gene. DNA was transfected into cells with polyethylenimine. Fifty nanograms of human MC4R and 10 μg of cAMP-responsive element (CRE)-LacZ were transfected into 293T cells on 10cm dishes. Another five 10cm dishes with 293T cells were transfected with 10 μg of respectively pAAV-GFP, pAAV-flAgRP, pAAV-VWF-AgRP83-132 , pAAV-VWF-αMSH1 and pAAV-VWF-αMSH4. One day after transfection the MC4R_CRE-LacZ cells were transferred to poly-L-lysine coated 96-wells plates. Three days after transfection supernatant of 10cm dishes was removed and used for LacZ reporter assay. […] In addition only forskolin was added to other wells as a positive control for CRE-LacZ transfection and the subsequent colometric reaction. The medium of another plate with MC4R_CRE-LacZ transfected cells was replaced with assay buffer containing serial dilutions of conditioned medium from cells transfected with αMSH1, αMSH4 or GFP. […] After 5-6 hour incubation at 37°C the assay medium was removed and replaced by 40 μl lysisbuffer (phosphate buffered saline (PBS) containing 0.1% Triton-X-100). The plates were stored at -20°C. After thawing of the plates, 80 μl of substrate (0.1 M phosphate buffer, pH7.4, containing 1.6 g/l o-nitrophenyl β-D-galactopyranoside (ONPG, Invitrogen, the Netherlands), 67.5 mM β-mercaptoethanol (Merck, Germany) and 1.5 mM magnesium chloride) was added to each well. Absorbance at 405 nm was measured in a Victor^2 microplate reader (PerkinElmer, Brussels, Belgium).
Data were analyzed with GraphPad Prism (GraphPad Software Inc., California). Competition curves were fitted from duplicate data points using sigmoidal dose response curve with variable slope.

T1 sequence (P32245 whole entry): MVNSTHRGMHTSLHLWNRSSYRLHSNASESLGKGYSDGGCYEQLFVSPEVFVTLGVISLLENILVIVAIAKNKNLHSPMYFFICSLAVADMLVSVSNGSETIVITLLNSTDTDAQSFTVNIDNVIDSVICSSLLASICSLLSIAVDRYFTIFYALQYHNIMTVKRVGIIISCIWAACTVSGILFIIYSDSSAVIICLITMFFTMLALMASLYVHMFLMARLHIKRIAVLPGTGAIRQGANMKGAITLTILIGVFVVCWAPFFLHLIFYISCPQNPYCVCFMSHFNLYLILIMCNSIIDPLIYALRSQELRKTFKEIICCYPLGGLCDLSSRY

EC50: 0.5 nM
Molecule: VWF-AgRP83-132: minigene product: VWF signal peptide, HA tag, furin site and AgRP83-132; tested as supernatant of transfected 293T cells (SPRRCVRLHESCLGQQVPCCDPCATCYCRFFNAFCYCRKLGTATNLCSRT; not fully specified; Secreted furin-released minigene product; VWF signal peptide, HA tag and RKRR furin site left out; The name 83-132 follows human numbering; it equals mouse precursor 82-131, since the printed primer e)

EC50: 1.4 nM | Shift of NDP-MSH dose response curve in presence of supernatant (50% of the volume added was supernatant of transfected 293T cells): shifted even further to the right
B1: flAgRP: supernatant of 293T cells transfected with full length mouse Agouti-related protein construct with normal AgRP signal peptide (protein, UniProt P56473 1-131, looked up)
chain: MLTAMLLSCVLLLALPPTLGVQMGVAPLKGIRRPDQALFPEFPGLSLNGLKKTTADRAEEVLLQKAEALAEVLDPQNRESRSPRRCVRLHESCLGQQVPCCDPCATCYCRFFNAFCYCRKLGTATNLCSRT
modifications: full-length
notes: supernatant of 293T cells transfected with full length mouse Agouti-related protein construct with normal AgRP signal peptide
